Data published in patent publication US20050026833A1, “PSP-94: use for treatment of hypercalcemia and bone metastasis” (priority 2001, published 2005).
“Also recorded” adds a separate entry of the source.

B1: PSP-94: prostate secretory protein of 94 amino acids; native human seminal plasma PSP-94 (protein)
chain: SCYFIPNEGVPGDSTRKCMDLKGNKHPINSEWQTDNCETCTCYETEISCCTLVSTPVGYDKDNCQRIFKKEDCKYIVVEKKDPKKTCSVSEWII

Legend:
[1] = tested on: Mat Ly Lu-PTHrP skeletal metastasis; test: I.C. inoculation skeletal metastasis model, hind limb paralysis; assay type: in vivo, male Copenhagen rats
Protocol: Animal Protocols. Inbred male Copenhagen rats weighing 200-250g were obtained from Harlan Sprague-Dawley (Indianapolis, Ind.). Before inoculation, Mat Ly Lu-PTHrP tumor cells growing in serum-containing medium were washed with Hanks buffer, trypsinized, and collected by centrifugation at 1500 rpm for 5 min. […] Animals were divided into control groups which received vehicle alone (PBS: phosphate buffered saline) and experimental groups which were infused I.P. with different doses (0.1-10.0 ug/kg/day) of PSP-94 starting at the time of tumor cell inoculation (day 0) until the day of skeletal metastasis development. The time after tumor cell inoculation which was required to develop hind limb paralysis (an index of spinal cord compression due to lumbar vertebrae metastasis) was determined and percentage of starting number of animals developing hind-limb paralysis was plotted.
Alternatively, cell pellets (10×10^3 cells) were resuspended in 100ul saline and injected using 1 ml syringes into the left ventricle of rats anaesthetised with ketamine/xylazine cocktail. […] The time after tumor cell inoculation which was required to develop hind limb paralysis (an index of spinal cord compression due to lumbar vertebrae metastasis) was determined and percentage of starting number of animals developing hind-limb paralysis was plotted. In other sets of experiments, following I.C. tumor cell inoculation, control animals receiving PBS and experimental animals receiving 100.0 ug/kg/day of PCK3145 were sacrificed before the development of hind-limb paralysis (day 10 post tumor cell inoculation) and their vertebral column spanning from L1-L5 was removed and subjected to bone histomorphometric and immunohistochemical analysis as described herein.
Thus, male Copenhagen rats were inoculated via I.C. route into the left ventricle with 10×10^3 Mat Ly Lu-PTHrP cells. Starting on the time of tumor cell inoculation (day 0) animals were infused with different doses of PSP-94 (0.1-10.0 ug/kg/day) until the day of development of hind-limb paralysis as described herein. Animals receiving vehicle alone as control (CTL) or PSP-94 were monitored daily for the development of hind-limb paralysis and % animals not paralyzed at different time points in each group was calculated.
Male Copenhagen rats were inoculated with Mat Ly L u-PTHrP cells (10×10^3) into the left ventricle via I.C. injections. Starting on the day of tumor cell inoculation (day 0), experimental animals received different doses of PCK3145 (1.0-100.0 ug/kg/day) via I.P. route. To evaluate the effect of PCK3145 on delaying the development of experimental skeletal metastasis, animals were evaluated daily by monitoring of the animals for the development of hind-limb paralysis. […]

PTHrP = test: Plasma PTHrP radioimmunoassay in tumor bearing animals; assay type: in vivo, male Copenhagen rats
Protocol: (§1) Control animals received PBS alone as vehicle control.
(§2) Other Analytical Methods. Plasma calcium levels were determined by atomic absorption spectrophotometry (model 703, Perkin-Elmer, Norwalk, Conn.). For plasma PTHrP, all samples were tested in two dilutions in PTHrP radio-immunoassay (R.I.A.) kit (Nichols Institute Diagnostics, San Juan Capistrano, Calif.) according to manufacturer's instructions.
(§3) Comparison was made between plasma collected from normal, non-tumor bearing animals (N), control tumor bearing animals receiving vehicle alone (CTL) and plasma collected from experimental animals receiving different doses of PSP-94 (0.1-10.0 ug/kg/day). Plasma calcium levels were determined by atomic absorption spectrophotometry (model 703, Perkin-Elmer, Norwalk, Conn.). For plasma PTHrP, all samples were tested in two dilutions in PTHrP R.I.A. kit (Nichols Institute Diagnostics, San Juan Capistrano, Calif.) according to manufacturers instructions.
(§4) FIGS. 10A and 10B show male Copenhagen rats inoculated s.c. with 10^6 Mat Ly Lu-PTHrP cells. Following 3 days of tumor cell inoculation, animals were treated with vehicle alone (Ctl) or different doses (1.0, or 10.0 ug/kg/day) of PSP-94 for 18 days. Animals were sacrificed on day 21 and plasma PTHrP (FIG. 10A; expressed in picomole equivalents/liter) or plasma calcium (FIG. 10B; expressed in millimolar (mM)) levels were determined. Results for non-tumor bearing animals are also shown (N).
Comparison was made between plasma collected from normal, non-tumor bearing animals, control tumor bearing animals receiving vehicle alone and experimental animals receiving different doses of PCK3145 (1.0-100.0 ug/kg/day). […] Plasma PTHrP levels in normal non-tumor bearing animals are also shown (N).

[2] = Animal weight and side-effect monitoring in tumor-bearing rats; details: for cytotoxic effects: overall conclusion of the study
Protocol: Also, alternatively, cell pellets (5×10^5 cells) were resuspended in 100 ul saline and injected using 1 ml syringes into the right flank of rats as described herein. From the time of tumor cell inoculation, experimental animals were treated with different doses (0.1, 1.0, 10.0, or 100.0 ug/kg/day) of PSP-94 or PCK3145 (SEQ ID NO.:5) via S.C. injections for 15 consecutive days. Control animals received PBS alone as vehicle control. All animals were numbered, kept separately and monitored daily for the development of tumors. […] All control and experimental animals were weighed every alternate day to determine any adverse effect of PSP-94 or PCK3145. Both control and experimental animals were sacrificed at day 16 post tumor cell inoculation and their tumors were removed and weighed.
During the study, both control and experimental animals were monitored for any noticeable side effects and cachexia resulting in weight loss. […] Starting on the time of tumor cell inoculation animals were infused with different doses of PSP-94 for fifteen consecutive days as described herein. All animals were weighed at timed intervals and comparison was made with that of tumor bearing animals receiving vehicle alone as control (CTL).
Male Copenhagen rats were inoculated with 1×10^6 Mat Ly Lu-PTHrP cells via S.C. route of injection into the right flank. Animals were infused daily via S.C. route, below the site of tumor cell inoculation, with different doses (1.0-100.0 ug/kg/day) of PCK3145 starting from the day of tumor cell inoculation and lasting for 15 days. […] Animals were also weighed to determine any side effects of administering PCK3145. […] In order to determine the effect of PCK3145 on tumor weight, control animals and experimental animals receiving PCK3145 were sacrificed at the end of the study (day 16) and their tumors excised and weighed.

Mat Ly Lu-PTHrP tumors = test: S.C. Mat Ly Lu-PTHrP tumor growth (volume, weight) in Copenhagen rats; assay type: in vivo, male Copenhagen rats
Protocol: as §1
Starting from the day of tumor cell inoculation animals were infused S.C., below the tumor cell inoculation site, with different doses of PSP-94 (0.1-10.0 ug/kg/day) for up to 15 days.
In FIG. 2B male Copenhagen rats were inoculated s.c with 10^6 Mat Ly Lu-PTHrP cells. After 3 days of tumor cell inoculation, animals were injected with vehicle alone (Ctl) or different doses (0.1, 1, 10 ug/kg) of PSP-94 (nPSP) at the site of tumor cell injection. Tumor volume (expressed in cubic centimeter (cm^3)) was determined at timed intervals.
At the end of the study tumors from control (CTL), vehicle treated animals and PSP-94 treated animals were excised and weighed.

[3] = Plasma calcium by atomic absorption spectrophotometry in tumor bearing animals; assay type: in vivo, male Copenhagen rats
Protocol: as §1, §2, §3, §4
Plasma calcium levels from non-tumor bearing animals are also shown (N).

| Molecule | number of animals developing hind limb paralysis ([1]; 100.0 ug/kg/day PCK3145 I.P. from day 0, vs vehicle) | time of developing hind limb paralysis ([1]; 1.0 and 10.0 ug/kg/day PCK3145 I.P. (data not shown)) | plasma PTHrP levels (PTHrP; PCK3145 1.0-100.0 ug/kg/day, day 16, vs vehicle) | animal weight ([2]; PCK3145 1.0-100.0 ug/kg/day S.C. for 15 days) | cytotoxic effects [2] | tumor volume (Mat Ly Lu-PTHrP tumors; PCK3145 1.0-100.0 ug/kg/day S.C. for 15 days, vs vehicle) | tumor weight (Mat Ly Lu-PTHrP tumors; different doses of PCK3145, day 16 (data not shown), vs vehicle) | plasma calcium levels ([3]; 100.0 ug/kg PCK3145, relative to lower doses) | plasma calcium levels ([3]; different doses of PCK3145, day 16, vs vehicle) | number of animals developing hind limb paralysis (delay in skeletal metastasis) ([1]; 10.0 ug/kg/day PSP-94 from day 0, vs vehicle) | time of hind limb paralysis ([1]; 0.1 and 1.0 ug/kg/day PSP-94 (data not shown)) | plasma PTHrP levels (PTHrP; 10.0 ug/kg/day PSP-94) | plasma PTHrP levels (PTHrP; PSP-94 0.1-10.0 ug/kg/day, day 16, vs vehicle) | side effects or weight loss of experimental animals ([2]; different doses of PSP-94, S.C. tumor model) | animal weight ([2]; different doses of PSP-94 for fifteen consecutive days, vs vehicle) | tumor volume (Mat Ly Lu-PTHrP tumors; 10.0 ug/kg/day PSP-94 as compared to 1.0 ug/kg/day PSP-94) | tumor volume (Mat Ly Lu-PTHrP tumors; PSP-94 0.1-10.0 ug/kg/day S.C. up to 15 days, vs vehicle) | tumor weight (Mat Ly Lu-PTHrP tumors; PSP-94 0.1-10.0 ug/kg/day, tumors excised day 16, vs vehicle) | plasma calcium levels ([3]; different doses of PSP-94, day 16, vs vehicle) | plasma calcium levels ([3]; highest dose of PSP-94, 10.0 ug/kg/day) |
| --- | --- | --- | --- | --- | --- | --- | --- | --- | --- | --- | --- | --- | --- | --- | --- | --- | --- | --- | --- | --- |
| E W Q T D N C E T C T C Y E T (EWQTDNCETCTCYET; PCK3145 (polypeptide 31-45)) | statistically significant delay | no significant effect | dose-dependent decrease | No significant difference | without manifesting any noticeable cytotoxic effects | significant dose-dependent reduction | dose-dependent decrease | more pronounced | significant reduction | – | – | – | – | – | – | – | – | – | – | – |
| B1 | – | – | – | – | without manifesting any noticeable cytotoxic effects | – | – | – | – | statistically significant delay; also recorded: modest (but measurable) delay | no significant effect | near normalization | dose-dependent decrease | not associated with any noticeable side effects or weight loss | No significant change | did not show a marked decrease | marked dose-dependent reduction | significant dose-dependent decrease | significant reduction; also recorded: dose-dependent decrease | near normalization |
